The results in this text go back to US20220273713A1, “METHOD OF INHIBITING OR ACTIVATING GAMMA DELTA T CELLS” (The University of Melbourne, priority 2019, published 2022).

Assay [1] concerns LM-MEL-62 and LM-MEL-75 melanoma cells. The assay is described as follows: Tumor killing/inhibition assay: γδ T cells with melanoma cells 2:1, MTS and CD25. The format is cell-based, human. To be noted: γδ T cells : melanoma cells 2:1, three days, antibody 10 ug/ml. How it is done: In the following experiments, γδ T cells were enriched by MACS using PE-Cy7-conjugated anti-γδTCR followed by anti-phycoerythrin-mediated magnetic bead purification (Miltenyi Biotec). After enrichment CD3^+ Vδ2^+γδ T cells were further purified by sorting using an Aria III (BD). […] LM-MEL-62 and LM-MEL-75 melanoma cells were plated out 1×10^4 per well in a 96 well flat-bottom plate In RPMI1640 media supplemented with 10% FBS and left to adhere overnight. […] All conditions were repeated in triplicate. Cells were incubated at 37 degrees and on day 3 Vd2+ cells were acquired by flow cytometry. Live cells were gated and activation determined by analysis of CD25 expression. Melanoma cell viability was determined by MTS assay. MTS reagent was added to RPMI media at a 1:5 ratio and 100 ul added per well. Cells were incubated at 37 degrees for 30 minutes and the plate was read on a Spectrostar nano plate reader at 490 nm. […] Cultures were performed with γδ T cells and melanoma cells (LM-MEL-75 or LM-MEL-62) in a 2:1 ratio.

The target of the next assay is T1, BTN2A2 (Homo sapiens, UniProt Q8WVV5).
T1 sequence (Q8WVV5 33-265 limits assumed): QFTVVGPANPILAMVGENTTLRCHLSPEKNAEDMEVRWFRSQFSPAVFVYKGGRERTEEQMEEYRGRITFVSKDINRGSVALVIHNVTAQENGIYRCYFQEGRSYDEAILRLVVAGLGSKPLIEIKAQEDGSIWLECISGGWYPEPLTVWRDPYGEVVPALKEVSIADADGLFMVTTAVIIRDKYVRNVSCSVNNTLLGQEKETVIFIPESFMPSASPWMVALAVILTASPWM
The assay is described as follows: Cross-reactivity of anti-BTN2A1 mAb to BTN2A2 (ELISA, transfected cells). The format is binding. How it is done: Purified recombinant proteins (0.2-20 μg/ml) were immobilized in microplate wells in PBS buffer overnight at 4° C. Non-specific binding was then blocked by incubation in PBS containing 0.05% tween 20 plus 5% skim milk powder or 0.5% (w/v) bovine serum albumin (BSA). The wells were then incubated for 60 minutes at room temperature in the presence of antibodies at 2-5 μg/mL in PBS/0.05% tween-20/2% skim milk powder or 0.5% BSA, followed by washing in PBS/0.05% tween-20. Plates were then incubated with HRP-labelled sheep anti-mouse IgG secondary antibody (Chemicon), or goat anti-mouse IgG secondary antibody (Millipore) followed by detection using 3,3′,5,5′-tetramethylbenzidine substrate (Sigma) and absorbance was measured at 450 nm using a plate reader.
(An ELISA detects its analyte on a solid surface through an enzyme-linked reagent.)

B1: antibody 259: agonistic anti-BTN2A1 antibody; VL SEQ ID NO: 156, VH SEQ ID NO: 160 (antibody, V domains shown)
VH: EVQLLESGGGLVQPGGSLRLSCAASGFTFSSYAMQWVRQAPGKGLEWVSRIGPSGGGTMYADSVKGRFTISRDNSKNTLYLQMNSLRAEDMAVYYCARDLGGLSVLFDYWGQGTLVTVSS
VL: QSELTQPPSASETPGQRVTISCSGSSSNIGSNTVSWFQQLPGSAPRLLIYNDHRRPSGVPDRFSGSKSGTSASLVISGLQSQDEADYYCSAWDDSLNGVVFGGGTKLTVL
modifications: amino acid sequence of the VH of antibody 259; amino acid sequence of the VL of antibody 259
As for B1, the “CD25 level of expression on γδ T cells in co-culture” value in assay [1] was “upregulated”. The “cross-reactivity to BTN2A2” value with BTN2A2 is recorded as “not cross-reactive”.
